# Target: T1, TtdV-His6;TtdW-His6 (Salmonella enterica serovar Typhimurium IR715 (ATCC14028 NalR);Salmonella enterica serovar Typhimurium IR715 (ATCC14028 NalR)) (UniProt Q8ZLP8+Q8ZLP7)
# T1 sequence 1: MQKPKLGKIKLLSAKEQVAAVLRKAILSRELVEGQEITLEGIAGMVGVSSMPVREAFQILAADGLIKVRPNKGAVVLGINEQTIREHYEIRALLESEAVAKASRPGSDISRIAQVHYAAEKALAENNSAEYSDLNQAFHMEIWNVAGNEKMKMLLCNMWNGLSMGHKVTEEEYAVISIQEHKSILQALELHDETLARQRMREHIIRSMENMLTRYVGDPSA
# T1 sequence 2: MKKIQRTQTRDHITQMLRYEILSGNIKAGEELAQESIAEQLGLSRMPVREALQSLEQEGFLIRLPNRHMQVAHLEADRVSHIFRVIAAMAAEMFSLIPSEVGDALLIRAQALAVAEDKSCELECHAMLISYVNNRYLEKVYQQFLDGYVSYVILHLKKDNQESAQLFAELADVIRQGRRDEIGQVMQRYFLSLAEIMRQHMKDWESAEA
# Assay: EMSA
# Conditions: LightShift Chemiluminescent EMSA kit (binding buffer, salt and pH not given), 20 min room temperature; 20 fmol probe, 6% 0.5x TBE gel (TtdV/TtdW); 50 fmol …
sequence,measurement,value
CGTATGCTGACCCGCTATGTTGGTGACCCTTCTGCCTGATCTTTTCGCCTGCGTGAGCATCGCAGGCGCTTCAACCAATTCTTCAATTCTATTAATCACGTCCAGTAACGATCTAACCACGATCTTGATGTAGATCCCACTCCTGCATCTTTCCTGAGAAACGATTTGACTTAGTTTTTGTATGGGAATAATTTCTCCCTGTCAACATTGGATACAATATCATATATCATTGATTGGATAATTATAAATATGGAACCCATTACCCTTACCTTATGTTTATTGGTGTTCGCCC (double strand) [Probe 4],binding,binds

# From paper PMC11237755
